Data published in patent US20220332795A1.
Positions count from the first letter of the chain named.

B1: SEQ ID NO 243 (designed binder, not shown: small tags and cut ends)
chain: MLPAPKNLVVSRVTEDSARLSWTAPDAAFDSFFIGYLEPQPPGEAIHLAVPGSERSYDLTGLKPGTEYNVTIQGVKGGFPSVPLAAVFTT
B2: SEQ ID NO 244 (designed binder, not shown: small tags and cut ends)
chain: MLPAPKNLVVSRVTEDSARLSWTAPDAAFDSFYIAYAEPRPDGEAISLQVPGSERSYDLTGLKPGTEYSVLIHGVKGGLLSSPLGAHFTT
B3: SEQ ID NO 245 (designed binder, not shown: small tags and cut ends)
chain: B2 chain with S47A, Q49W, G85V, H87S
B4: SEQ ID NO 246 (designed binder, not shown: small tags and cut ends)
chain: B2 chain with S47Q, Q49H, G85Y, H87F
B5: SEQ ID NO 247 (designed binder, not shown: small tags and cut ends)
chain: B2 chain with S47L, Q49H, G85R, H87S
B6: SEQ ID NO 248 (designed binder, not shown: small tags and cut ends)
chain: B2 chain with S47W, Q49G, G85H, H87T
B7: SEQ ID NO 249 (designed binder, not shown: small tags and cut ends)
chain: B2 chain with S47V, Q49E, G85H, H87N
B8: SEQ ID NO 250 (designed binder, not shown: small tags and cut ends)
chain: B2 chain with S47L, Q49R, G85Y, H87K
B9: SEQ ID NO 251 (designed binder, not shown: small tags and cut ends)
chain: B1 chain with H47G, A49W, V82D, A85Q
B10: SEQ ID NO 252 (designed binder, not shown: small tags and cut ends)
chain: B2 chain with S47V, Q49H, G85D, H87F
B11: SEQ ID NO 253 (designed binder, not shown: small tags and cut ends)
chain: B2 chain with S47I, Q49H, G85D, H87Y
B12: SEQ ID NO 254 (designed binder, not shown: small tags and cut ends)
chain: B2 chain with S47L, Q49A, G85S, H87K
B13: SEQ ID NO 255 (designed binder, not shown: small tags and cut ends)
chain: B1 chain with H47L, A49F, V82T, A85S, V87S
B14: SEQ ID NO 256 (designed binder, not shown: small tags and cut ends)
chain: B2 chain with S47Q, Q49T, G85H, H87Y
B15: SEQ ID NO 257 (designed binder, not shown: small tags and cut ends)
chain: B2 chain with S47Q, Q49G, G85R, H87Y
B16: SEQ ID NO 258 (designed binder, not shown: small tags and cut ends)
chain: B2 chain with S47L, Q49E, G85V, H87F
B17: SEQ ID NO 259 (designed binder, not shown: small tags and cut ends)
chain: B2 chain with S47Q, Q49G, G85L, H87V
B18: SEQ ID NO 260 (designed binder, not shown: small tags and cut ends)
chain: B1 chain with F33Y, G35A, L37A, Q40R, P42D, A49R, V82M, A85S, V87I
B19: SEQ ID NO 261 (designed binder, not shown: small tags and cut ends)
chain: B2 chain with S47L, G85I, H87K
B20: SEQ ID NO 262 (designed binder, not shown: small tags and cut ends)
chain: B2 chain with S47V, Q49H, G85Q, H87I
B21: SEQ ID NO 263 (designed binder, not shown: small tags and cut ends)
chain: B2 chain with S47A, Q49V, G85A, H87N
B22: SEQ ID NO 264 (designed binder, not shown: small tags and cut ends)
chain: B2 chain with S47N, Q49S, G85D, H87Y
B23: SEQ ID NO 265 (designed binder, not shown: small tags and cut ends)
chain: B2 chain with S47V, Q49E, G85T, H87S
B24: SEQ ID NO 266 (designed binder, not shown: small tags and cut ends)
chain: B2 chain with S47R, H87S
B25: SEQ ID NO 267 (designed binder, not shown: small tags and cut ends)
chain: B2 chain with S47G, Q49W, G85V, H87Y
B26: SEQ ID NO 268 (designed binder, not shown: small tags and cut ends)
chain: MLPAPKNLVVSRVTEDSARLSWTAPDAAFDSFYIAYAEPRPDGEAIYLEVPGSERSYDLTGLKPGTEYSVLIHGVKGGLLSSPLFTT
B27: SEQ ID NO 269 (designed binder, not shown: small tags and cut ends)
chain: B2 chain with S47W, Q49D, G85D, H87Y
B28: SEQ ID NO 270 (designed binder, not shown: small tags and cut ends)
chain: MLPAPKNLVVSRVTEDSARLSWTAPDAAFDSFAIEYCETKMCGEAIVLTVPGSERSYDLTGLKPGTEYRVPIPGVKGGTASLPLSAIFTT
B29: SEQ ID NO 203 (designed binder, not shown: small tags and cut ends)
chain: B1 chain with H47V, A49L, V87F
B30: SEQ ID NO 204 (designed binder, not shown: small tags and cut ends)
chain: MLPAPKNLVVSRVTEDSARLSWTAPDAAFDSFFIGYLEPQPPGEAILLWVPGSERSYDLTGLKPGTEYNVTIQGVKGGFPSQFTT
B31: SEQ ID NO 205 (designed binder, not shown: small tags and cut ends)
chain: MLPAPKNLVVSRVTEDSARLSWTAPDAAFDSFFIGYLEPQPPGEAILLGVPGSERSYDLTGLKPGTEYNVTIQGVKGGFPSMPLHPLVALFTT
B32: SEQ ID NO 206 (designed binder, not shown: small tags and cut ends)
chain: B2 chain with S47G, Q49D, G85S, H87I
B33: SEQ ID NO 207 (designed binder, not shown: small tags and cut ends)
chain: B2 chain with S47H, Q49S, G85A, H87Y
B34: SEQ ID NO 208 (designed binder, not shown: small tags and cut ends)
chain: B1 chain with H47V, V82Y, A85V, V87A
B35: SEQ ID NO 209 (designed binder, not shown: small tags and cut ends)
chain: B2 chain with S47L, E54C, G85T, H87I
B36: SEQ ID NO 210 (designed binder, not shown: small tags and cut ends)
chain: B1 chain with H47N, A49Q, V82F, A85S
B37: SEQ ID NO 211 (designed binder, not shown: small tags and cut ends)
chain: B2 chain with S47Q, Q49H, G85V, H87I
B38: SEQ ID NO 212 (designed binder, not shown: small tags and cut ends)
chain: B2 chain with S47W, Q49A, G85H, H87Q
B39: SEQ ID NO 213 (designed binder, not shown: small tags and cut ends)
chain: B26 chain with Y47L, E49G
B40: SEQ ID NO 214 (designed binder, not shown: small tags and cut ends)
chain: B2 chain with S47G, G85C, H87E
B41: SEQ ID NO 215 (designed binder, not shown: small tags and cut ends)
chain: B2 chain with S47V, Q49W, G85I, H87E
B42: SEQ ID NO 216 (designed binder, not shown: small tags and cut ends)
chain: MLPAPKNLVVSRVTEDSARLSWTAPDAAFDSFYIAYAEPRPDGEAISLSVPGSERSYDLTGLKPGTEYSVLIHGVKGGLLSSPPKFTT
B43: SEQ ID NO 217 (designed binder, not shown: small tags and cut ends)
chain: B2 chain with S47I, Q49E, G85R, H87V
B44: SEQ ID NO 218 (designed binder, not shown: small tags and cut ends)
chain: B2 chain with S47H, Q49V, G85S, H87I
B45: SEQ ID NO 219 (designed binder, not shown: small tags and cut ends)
chain: B2 chain with Q49K, G85E, H87I
B46: SEQ ID NO 221 (designed binder, not shown: small tags and cut ends)
chain: MLPAPKNLVVSRVTEDSARLSWTAPDAAFDSFFIGYLEPQPPGEAIFLDVPGSERSYDLTGLKPGTEYNVTIQGVKGGFPSPLTAFFTT
B47: SEQ ID NO 222 (designed binder, not shown: small tags and cut ends)
chain: B1 chain with H47V, A49D, V82H, V87A
B48: SEQ ID NO 223 (designed binder, not shown: small tags and cut ends)
chain: B1 chain with H47G, A85Q, V87N
B49: SEQ ID NO 224 (designed binder, not shown: small tags and cut ends)
chain: B2 chain with S47L, Q49R, G85V, H87E
B50: SEQ ID NO 225 (designed binder, not shown: small tags and cut ends)
chain: B2 chain with S47L, G85S, H87S
B51: SEQ ID NO 226 (designed binder, not shown: small tags and cut ends)
chain: B2 chain with S47G, Q49H, G85T, H87S

Target: human serum albumin (human) (UniProt P02768)
Assay: solution ELISA screen (luminescence)

Sequence of human serum albumin (human) (P02768 25-609 limits assumed): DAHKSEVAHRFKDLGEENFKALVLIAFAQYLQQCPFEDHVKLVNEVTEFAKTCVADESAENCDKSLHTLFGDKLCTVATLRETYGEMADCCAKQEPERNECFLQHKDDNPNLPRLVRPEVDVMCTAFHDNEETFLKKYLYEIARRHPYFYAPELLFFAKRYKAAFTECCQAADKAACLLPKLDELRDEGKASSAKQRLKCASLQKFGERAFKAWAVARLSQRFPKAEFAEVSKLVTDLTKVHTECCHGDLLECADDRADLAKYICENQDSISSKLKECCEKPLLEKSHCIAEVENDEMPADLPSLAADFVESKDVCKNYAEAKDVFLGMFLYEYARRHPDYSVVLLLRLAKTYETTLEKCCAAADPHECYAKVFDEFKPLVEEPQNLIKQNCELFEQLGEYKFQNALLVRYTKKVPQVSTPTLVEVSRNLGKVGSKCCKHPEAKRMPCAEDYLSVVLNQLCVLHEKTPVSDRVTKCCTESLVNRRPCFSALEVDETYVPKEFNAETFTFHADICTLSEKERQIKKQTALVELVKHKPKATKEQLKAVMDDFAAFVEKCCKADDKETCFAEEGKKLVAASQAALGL

Row | Binder | RLU [RLU]
1 | B1 | 30900
2 | B2 | 18000
3 | B3 | 18400
4 | B4 | 25800
5 | B5 | 19000
6 | B6 | 34000
7 | B7 | 24100
8 | B8 | 48400
9 | B9 | 26100
10 | B10 | 72800
11 | B11 | 37700
12 | B12 | 21500
13 | B13 | 102000
14 | B14 | 76100
15 | B15 | 29800
16 | B16 | 26500
17 | B17 | 25400
18 | B18 | 33400
19 | B19 | 174000
20 | B20 | 30900
21 | B21 | 23800
22 | B22 | 24400
23 | B23 | 30700
24 | B24 | 36200
25 | B25 | 29800
26 | B26 | 117000

Row | Binder | RLU [RLU]
27 | B27 | 19900
28 | B28 | 64400
29 | B29 | 26000
30 | B30 | 20000
31 | B31 | 155000
32 | B32 | 14000
33 | B33 | 121000
34 | B34 | 16400
35 | B35 | 17800
36 | B36 | 48600
37 | B37 | 13000
38 | B38 | 17400
39 | B39 | 70300
40 | B40 | 30200
41 | B41 | 22400
42 | B42 | 192000
43 | B43 | 16200
44 | B44 | 14100
45 | B45 | 11800
46 | B46 | 59000
47 | B47 | 15600
48 | B48 | 18300
49 | B49 | 26200
50 | B50 | 17000
51 | B51 | 16000
